Assay [1] has as its target T1, human CD8 on cells (CD8-overexpressing HEK293T cells, SupT1, HPB-ALL, human T cells, transfected HEK293 of … (human, UniProt P01732 22-235)).
T1 construct: whole, on cells; also called cell surface CD8
The assay is described as follows: flow cytometry, Human Expanded T cells Donor 5, gated on CD4- T cells, anti-human Fc BV421. On the procedure: (§1) Binding was measured by fluorescence from the BV421 fluorophore-conjugated anti-human Fc secondary antibody that recognize the binders. The gMFI was normalized to the gMFI of the secondary antibody in the absence of the anti-CD8α binders.
(§2) To obtain the results shown in FIG. 8A and FIG. 8B, 5×10⁴ expanded primary T cells (human, cynomolgus macaque or rhesus monkey) were thawed and transferred to a V bottom 96-well culture plate (Corning). Cells were washed twice with Cell Staining buffer (#420201, Biolegend). Each anti-CD8α antibody was diluted in four-fold antibody titration series from 60 μg/mL to 0.057 ng/mL into Cell Staining buffer. […] Cells were then washed three times with Cell Staining buffer and primary antibody binding was detected by staining with anti-human Fc BV421 conjugate antibody (#410704, Biolegend) at 1:200 dilution for 30 minutes on ice. […] Flow cytometry data was analyzed by Flowjo 10 (Becton, Dickinson & Company) to measure the geometric median fluorescence intensity (gMFI) of the on-cell binding from each antibody. The gMFI values were normalized with the gMFI measured in the sample stained with only the secondary detection antibody and plotted against the concentration of the added antibodies. The binding curves were constructed using Graphpad Prism software, and EC₅₀ values were determined by non-linear curve fitting.

Assay [2] concerns the target T1, human CD8 on cells (CD8-overexpressing …). The assay is described as follows: flow cytometry on CD8-overexpressing HEK293T cells, non-linear fit of normalized gMFI. For orientation: Flow cytometry measures light scatter and fluorescence of single cells or particles in a stream.
The target of assay [3] is T2, human CD8αα homodimer, recombinant protein (Acro Biosystems) (human, UniProt P01732 22-182).
T2 construct: also called CD8αα antigen; biotinylated CD8α recombinant protein (CDA-H82E3)
The assay is described as follows: BLI steady state analysis, whole antibody, sample stressed at pH 8.5, 40 °C, 7 days. On the procedure: To assess affinity of whole antibodies, steady state analysis was used as the bivalent nature of both whole antibody and CD8α complicates kinetic analysis. 50 nM CD8α-His (that is, CD8α with a C-terminal oligohistidine tag; Acro) was immobilized on Ni-NTA sensor probes. Binding was analyzed with a three-fold antibody dilutions series: 60 nM, 20 nM, 6.67 nM, 2.22 nM, 0.74 nM, and 0.25 nM. The antigen-loaded sensors were incubated in the diluted solutions to capture the whole IgG antibody for 300 s to record the association phase. Sensors were incubated in the kinetic buffer for 900 s to record the dissociation phase. The spin speed was 1000 rpm for all steps except the antigen loading step which was 400 rpm to control density of the antigen. The temperature of the performed assays was at 30° C. during the association and dissociation phases. The sensor data were baseline subtracted and further analyzed in GatorOne software (version 2.10) to determine the equilibrium dissociation constants (KD) of the antibodies by fitting the signals of the steady states to the 1:1 binding model.

For assay [4], the target named is T1, human CD8 on cells (CD8-overexpressing …). The assay is described as follows: flow cytometry, Human Expanded T cells Donor 6, gated on live CD8 T cells (via CD3+CD4-). On the procedure: To obtain the results shown in FIG. 8A and FIG. 8B, 5×10⁴ expanded primary T cells (human, cynomolgus macaque or rhesus monkey) were thawed and transferred to a V bottom 96-well culture plate (Corning). Cells were washed twice with Cell Staining buffer (#420201, Biolegend). Each anti-CD8α antibody was diluted in four-fold antibody titration series from 60 μg/mL to 0.057 ng/mL into Cell Staining buffer. Cells were stained with each diluted antibody solution for 30 minutes on ice. Cells were then washed three times with Cell Staining buffer and primary antibody binding was detected by staining with anti-human Fc BV421 conjugate antibody (#410704, Biolegend) at 1:200 dilution for 30 minutes on ice. […] Flow cytometry data was analyzed by Flowjo 10 (Becton, Dickinson & Company) to measure the geometric median fluorescence intensity (gMFI) of the on-cell binding from each antibody. The gMFI values were normalized with the gMFI measured in the sample stained with only the secondary detection antibody and plotted against the concentration of the added antibodies. The binding curves were constructed using Graphpad Prism software, and EC₅₀ values were determined by non-linear curve fitting.

The target in assay [5] is T3, cynomolgus macaque CD8 on expanded primary T cells (cynomolgus macaque).
T3 construct: also called CD4- CD8+ cynomolgus macaque T cells
The assay is described as follows: flow cytometry, Cyno Expanded T cells Donor 9, gated on CD4- T cells, anti-human Fc BV421. On the procedure: as §1, §2

Experimental findings from US20250195685A1 (CAPSTAN THERAPEUTICS, published 2025) are described below.

T1 sequence (P01732 22-235): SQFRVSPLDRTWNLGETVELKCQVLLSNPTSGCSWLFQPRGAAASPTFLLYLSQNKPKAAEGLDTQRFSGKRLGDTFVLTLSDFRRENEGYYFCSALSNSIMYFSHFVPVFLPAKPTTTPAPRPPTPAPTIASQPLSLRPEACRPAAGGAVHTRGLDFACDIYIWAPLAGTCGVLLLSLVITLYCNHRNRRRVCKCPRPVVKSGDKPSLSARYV
T2 sequence (P01732 22-182 limits assumed): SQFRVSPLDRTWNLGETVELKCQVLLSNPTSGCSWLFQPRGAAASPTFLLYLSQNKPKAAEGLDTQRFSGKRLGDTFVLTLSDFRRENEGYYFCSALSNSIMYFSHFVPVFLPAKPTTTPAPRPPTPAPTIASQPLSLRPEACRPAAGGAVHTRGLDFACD

B1: CBD1033 whole antibody, human IgG1 with Fc-silencing mutations L234A, L235A and P329A (CBD1033-hIgG1-LALAPA) (antibody, V domains shown)
VH: QVQLVQSGAEVKKPGASVKVSCKASRYTFTDYNLHWVRQAPGQGLEWMGFIYPYNGGTGYAQKFQGRVTMTVDTSTSTAYMELSSLRSEDTAVYYCARDHRYNEGVSFDYWGQGTTVTVSS
VL: DIQLTQSPSSLSASVGDRATITCRASESVDGFGNSFMNWYQQKPGKAPKLLIYLASNLESGVPSRFSGSGSGTDFTLTISSVQPEDFATYYCQQNNEDPYTFGQGTKLEIKR
notes: On tLNPs the antibody was SATA-modified or AJICAP-thiolated (CBD1033.29) and conjugated to the LNP; also called CBD1033.3; CBD1033 IgG1
In the case of B1, the half-maximal effective concentration (EC50 (read off the curve)) was approximately 0.1 µg/mL in assay [1] and approximately 0.2 µg/mL in assay [5]. Moreover, the figures for the EC50 in assay [2] and in assay [4] were 2.78 nM and 0.112 µg/mL, respectively. The dissociation constant (Kd) in assay [3] stood at 2.12 nM.

B2: CBD1017ch whole antibody (chimeric CT8 antibody) (antibody, V domains shown)
VH: EVQLQQSGPELVKPGASVKISCKASRYTFTDYNLHWVKLSHEKSLEWIGFIYPYNGGTGYNQKFKNKAKLTVDYSSSTAYMELRSLTSVDAAVYYCARDHRYNEGVSFDYWGQGTTLTVSS
VL: NIVLTQSPASLAVSLGQRATISCRASESVDGFGNSFMNWYQQKPGQSPKLLIYLASNLESGVPARFSGSGSRTDFTLTIDPVEADDAATYYCQQNNEDPYTFGGGTKLEIK
notes: Chimeric antibody comprising the variable regions of the donor antibody CT8; detected with anti-human Fc
On to B2, for which the entries for the “EC50 (read off the curve)” value in assay [1] and in assay [5] were approximately 0.05 µg/mL and approximately 0.06 µg/mL, respectively. Also, the EC50 in assay [2] turned out to be 2.75 nM; in assay [4], 0.052 µg/mL. For the same molecule, in assay [3], the dissociation constant Kd came to 0.53 nM.

What is called EC50 (read off the curve) is the midpoint of the concentration-response curve. For orientation: EC50 means the concentration that produces a half-maximal response. Higher therefore signals weaker potency. As usually defined, the Kd is the free concentration of one partner at which half of the binding sites on the other are occupied at equilibrium, for simple one-to-one binding.
